# Experimental data as given in patent publication US20220016257A1 (Daiichi Sankyo, published 2022).
# T1: Recombinant Human CDH6 Fc His chimera (R&D Systems, Inc.) (human, UniProt P55285 54-615)
# T1 construct: Bought reagent; Captured on the chip by an anti-His antibody; also called the antigen; not shown: Fc portion of the bought chimera; His tag of the bought chimera
# T1 sequence: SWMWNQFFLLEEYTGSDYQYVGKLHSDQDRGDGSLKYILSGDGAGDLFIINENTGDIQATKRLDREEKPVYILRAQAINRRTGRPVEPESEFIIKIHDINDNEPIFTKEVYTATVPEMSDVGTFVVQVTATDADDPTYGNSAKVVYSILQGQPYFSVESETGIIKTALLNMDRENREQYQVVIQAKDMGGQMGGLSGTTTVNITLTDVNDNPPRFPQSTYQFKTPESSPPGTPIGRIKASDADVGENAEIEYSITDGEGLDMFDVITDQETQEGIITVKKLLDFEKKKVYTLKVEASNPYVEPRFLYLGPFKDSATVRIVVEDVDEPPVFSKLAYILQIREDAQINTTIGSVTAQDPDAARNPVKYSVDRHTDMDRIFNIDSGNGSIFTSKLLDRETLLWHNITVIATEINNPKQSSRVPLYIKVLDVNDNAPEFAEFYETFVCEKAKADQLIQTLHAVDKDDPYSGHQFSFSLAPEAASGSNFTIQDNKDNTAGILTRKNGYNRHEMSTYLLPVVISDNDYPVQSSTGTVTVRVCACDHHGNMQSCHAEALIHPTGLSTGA
# T2: EC3-deleted human CDH6 (EC3 deletion mutant, on cells) (human, UniProt P55285 54-790)
# T2 construct: Full-length human CDH6 lacking EC3; Cloned in p3xFLAG-CMV-9; also called EC3-deleted hCDH6
# T2 sequence: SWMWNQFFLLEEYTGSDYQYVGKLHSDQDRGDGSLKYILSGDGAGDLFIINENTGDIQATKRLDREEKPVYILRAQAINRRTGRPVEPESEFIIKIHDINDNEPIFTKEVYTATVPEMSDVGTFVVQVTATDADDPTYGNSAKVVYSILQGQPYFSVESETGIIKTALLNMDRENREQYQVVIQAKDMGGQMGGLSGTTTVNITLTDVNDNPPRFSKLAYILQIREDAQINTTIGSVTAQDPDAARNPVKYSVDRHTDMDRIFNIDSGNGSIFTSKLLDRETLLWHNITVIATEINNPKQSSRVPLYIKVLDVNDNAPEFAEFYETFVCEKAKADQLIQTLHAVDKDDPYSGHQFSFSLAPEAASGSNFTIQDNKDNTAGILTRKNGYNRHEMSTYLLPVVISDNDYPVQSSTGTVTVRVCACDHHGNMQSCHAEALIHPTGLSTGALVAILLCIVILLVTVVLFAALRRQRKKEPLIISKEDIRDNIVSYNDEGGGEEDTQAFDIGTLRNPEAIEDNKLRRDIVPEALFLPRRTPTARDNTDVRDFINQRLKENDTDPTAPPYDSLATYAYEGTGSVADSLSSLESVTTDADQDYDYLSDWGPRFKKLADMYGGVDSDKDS
# Columns and labels:
# [1] = target: T1, Recombinant Human CDH6 Fc His chimera …; experiment: SPR (Biacore T200), antigen captured by immobilized anti-His antibody, antibody as analyte, steady state affinity model
# Method: The dissociation constant between the antibody and the antigen (Recombinant Human CDH6 Fc His chimera, R&D Systems, Inc.) was measured by using Biacore T200 (GE Healthcare Biosciences Corp.), according to a capture method, which comprises capturing the antigen as a ligand with the immobilized anti-His antibody and then measuring the dissociation constant using an antibody as an analyte. Approximately 1000 RU of the anti-histidine antibody (His capture kit, GE Healthcare Biosciences Corp.) was covalently bound to sensor chip CM5 (GE Healthcare Biosciences Corp.) by the amine coupling method. The antibody was also immobilized onto reference cells in the same manner as above. HBS-P+(10 mM HEPES pH 7.4, 0.15 M NaCl, 0.05% Surfactant P20) supplemented with 1 mM CaCl₂ was used as a running buffer. The antigen was added onto the anti-histidine antibody-immobilized chip for 60 seconds, and a dilution series solution (0.391 to 100 nM) of the antibody was then added at a flow rate of 30 μl/min for 300 seconds. Subsequently, the dissociation phase was monitored for 600 seconds. As a regeneration solution, a glycine solution (pH 1.5) supplemented with 5 M MgCl₂ was added twice at a flow rate of 10 μl/min for 30 seconds. A Steady State Affinity model in analysis software (BIAevaluation software, version 4.1) was used in data analysis, and the dissociation constant (KD) was calculated.
# [2] = target: T2, EC3-deleted human CDH6 (EC3 deletion …); experiment: flow cytometry, 293α cells transiently expressing EC3-deleted hCDH6 (open) against untransfected cells (shaded), APC anti-human IgG F(ab')2
# Method: The cells were cultured overnight under conditions of 37° C. and 5% CO₂, and thereafter, a cell suspension was prepared. […] Thereafter, the cells were suspended by the addition of each of the 4 humanized hG019 antibodies (clone Nos: H01L02, H02L02, H02L03 and H04L02), which had been prepared in Example 5)-5-3, or the anti-CDH6 antibody NOV0712, which had been prepared in Reference Example 1, or human IgG1 (Calbiochem) as a negative control. The cells were left standing at 4° C. for 1 hour. The cells were washed twice with PBS supplemented with 5% FBS, and then suspended by the addition of APC-anti-human IgG goat F(ab′)2 (Jackson ImmunoResearch Laboratories, Inc.) that had been 500-fold diluted with PBS supplemented with 5% FBS. The cells were left standing at 4° C. for 1 hour. The cells were washed twice with PBS supplemented with 5% FBS, followed by detection using a flow cytometer (Canto II; BD Biosciences). The data was analyzed using FlowJo (TreeStar, Inc.). In the histograms of FIGS. 5-1 to 5-6, the abscissa depicts APC fluorescence intensity indicating the amount of the antibody bound, and the ordinate depicts cell count. […] Fluorescence intensity is enhanced when the antibody binds to full-length hCDH6 or each EC domain deletion mutant on the cell surface. The human IgG1 control binds to none of the transfected cells.
Kd [1] [nM],binding result [2],Binder
1.1,no binding (tested: not given),"humanized anti-CDH6 antibody H02L02 (antibody, human IgG1, kappa, V domains shown, hH02 heavy chain and hL02 light chain, human IgG1/kappa; also called H02L02 antibody; humanized hG019) VH: EVQLVQSGAEVKKPGASVKVSCKASGYTFTRNFMHWVRQAPGQGLEWMGWIYPGDGETEYNQKFQGRVTITADRSTSTAYMELSSLRSEDTAVYFCARGVYGGFAGGYFDFWGQGTLVTVSS VL: DIQMTQSPSSLSASVGDRVTITCKASQNIYKNLAWYQQKPGKAPKLLIYDANTLQTGVPSRFSGSGSGSDFTLTISSLQPEDFATYFCQQYYSGWAFGQGTKVEIKR"
1.1,no binding (tested: not given),"humanized anti-CDH6 antibody H04L02 (antibody, human IgG1, kappa, V domains shown, hH04 heavy chain and hL02 light chain, human IgG1/kappa; also called H04L02 antibody; humanized hG019) VH: QVQLVQSGAEVKKPGASVKVSCKASGYTFTRNFMHWIRQAPGQGLEWMGWIYPGDGETEYAQKFQGRVTLTADRSTSTAYMELSSLRSEDTAVYYCARGVYGGFAGGYFDFWGQGTLVTVSS VL: DIQMTQSPSSLSASVGDRVTITCKASQNIYKNLAWYQQKPGKAPKLLIYDANTLQTGVPSRFSGSGSGSDFTLTISSLQPEDFATYFCQQYYSGWAFGQGTKVEIKR"
1.5,no binding (tested: not given),"humanized anti-CDH6 antibody H01L02 (antibody, human IgG1, kappa, hH01 heavy chain and hL02 light chain, human IgG1/kappa; also called H01L02 antibody; humanized hG019) heavy: not shown light: DIQMTQSPSSLSASVGDRVTITCKASQNIYKNLAWYQQKPGKAPKLLIYDANTLQTGVPSRFSGSGSGSDFTLTISSLQPEDFATYFCQQYYSGWAFGQGTKVEIKRTVAAPSVFIFPPSDEQLKSGTASVVCLLNNFYPREAKVQWKVDNALQSGNSQESVTEQDSKDSTYSLSSTLTLSKADYEKHKVYACEVTHQGLSSPVTKSFNRGEC"
1.4,no binding (tested: not given),"humanized anti-CDH6 antibody H02L03 (antibody, human IgG1, kappa, V domains shown, hH02 heavy chain and hL03 light chain, human IgG1/kappa; also called H02L03 antibody; humanized hG019) VH: EVQLVQSGAEVKKPGASVKVSCKASGYTFTRNFMHWVRQAPGQGLEWMGWIYPGDGETEYNQKFQGRVTITADRSTSTAYMELSSLRSEDTAVYFCARGVYGGFAGGYFDFWGQGTLVTVSS VL: DIQMTQSPSSLSASVGDRVTITCKASQNIYKNLAWYQQKLGEGPKLLIYDANTLQTGVPSRFSGSGSGTDFTLTISSLQPEDFATYYCQQYYSGWAFGQGTKVEIKR"
